This note sets out measurements from publication PMC8896794 (Science Advances, 2022).

In assay [1] the target is T1, porcine TSHR (Sus scrofa, UniProt Q8SPP9).
T1 construct: thyroid-stimulating hormone receptor, porcine, cDNA NM_214297.1; also called pTSHR; source: HEK293T, transfected (with GFP), on cells
Briefly: flow cytometry on cells; HEK293T cells transfected with pTSHR and GFP, mixed with PBS or purified mouse serum IgGs, washed, stained with M22 mAb, then APC-conjugated anti-human IgG. (A flow cytometer gives signals particle by particle.)

Assay [2] addresses T2, human TSHR extracellular domain complexed with HLA-DP5 (Homo sapiens; HLA-DPA1*02:02/DPB1*05:01, UniProt P16473;IMGT, strain).
T2 construct: human TSHR extracellular domain (ECD), residues 22 to 282; the ECD has no membrane anchor of its own and is seen on the cell surface with HLA-DP5; also called TSHR ECD with HLA-DP5; TSHR ECD/HLA-DP complex; source: HEK293T, co-transfected (pME18S), on cells; not shown: Flag, N-terminal, kept; copies: + +
Briefly: flow cytometry on cells; HEK293T cells transfected with TSHR or TSHR ECD with or without HLA-DP (pME18S, with GFP), incubated with the human anti-TSHR mAb, then APC-conjugated anti-human IgG; FACSCalibur; MFI minus that of GFP-negative cells.

Assay [3] concerns the target T3, full-length human TSHR complexed with HLA-DP5 (HLA-DPA1*02:02/HLA-DPB1*05:01) (Homo sapiens; …, UniProt P16473;IMGT, strain).
T3 construct: thyroid-stimulating hormone receptor (TSHR), human, cDNA AY429111.1, full length; co-expressed in one cell; also called TSHR with HLA-DP5; TSHR/HLA-DP5 complex; source: HEK293T, co-transfected (pME18S), on cells; copies: + +
The assay is described as above.

For assay [4], the target named is T4, full-length mouse TSHR with I-A^k on DAP.3 cells (Mus musculus; I-Ak, UniProt P47750;P01910;P06343).
T4 construct: thyroid-stimulating hormone receptor, mouse, cDNA NM_011648.5, full length; mouse MHC class II I-A^k alpha chain, cDNA V00832.1; mouse MHC class II I-A^k beta chain, cDNA M13538.1; co-expressed in one cell; also called mTSHR + I-A^k; mTSHR and I-A^k; copies: + +
Briefly: flow cytometry on cells; DAP.3 cells stably expressing mTSHR alone or mTSHR and I-A^k stained with K1-18 mAb; DAP.3 parental cells as control.

The target of assay [5] is T5, full-length mouse TSHR on DAP.3 cells (mTSHR alone) (Mus musculus, UniProt P47750).
T5 construct: thyroid-stimulating hormone receptor, mouse, cDNA NM_011648.5, full length
The assay is described as above.

The target of assay [6] is T6, full-length human TSHR cotransfected with HLA-DP4 (HLA-DPA1*01:03/HLA-DPB1*04:01) (Homo sapiens; HLA-DPA1*01:03/DPB1*04:01, UniProt P16473;IMGT, strain).
T6 construct: thyroid-stimulating hormone receptor (TSHR), human, cDNA AY429111.1, full length; co-expressed in one cell; also called TSHR with HLA-DP4; source: HEK293T, co-transfected (pME18S), on cells; copies: + +
In words: flow cytometry on cells; HEK293T cells transfected with TSHR or TSHR ECD with or without HLA-DP (pME18S, with GFP), incubated with the human anti-TSHR mAb, then APC-conjugated anti-human IgG; FACSCalibur; MFI minus that of GFP-negative cells.

For assay [7], the target named is T7, full-length human thyroid-stimulating hormone receptor, transfected alone (Homo sapiens, UniProt P16473).
T7 construct: thyroid-stimulating hormone receptor (TSHR), human, cDNA AY429111.1, full length; no MHC class II co-transfected; also called TSHR; human TSHR; source: HEK293T, transfected (pME18S), on cells
The description is as above.

T1 sequence (Q8SPP9 22-764): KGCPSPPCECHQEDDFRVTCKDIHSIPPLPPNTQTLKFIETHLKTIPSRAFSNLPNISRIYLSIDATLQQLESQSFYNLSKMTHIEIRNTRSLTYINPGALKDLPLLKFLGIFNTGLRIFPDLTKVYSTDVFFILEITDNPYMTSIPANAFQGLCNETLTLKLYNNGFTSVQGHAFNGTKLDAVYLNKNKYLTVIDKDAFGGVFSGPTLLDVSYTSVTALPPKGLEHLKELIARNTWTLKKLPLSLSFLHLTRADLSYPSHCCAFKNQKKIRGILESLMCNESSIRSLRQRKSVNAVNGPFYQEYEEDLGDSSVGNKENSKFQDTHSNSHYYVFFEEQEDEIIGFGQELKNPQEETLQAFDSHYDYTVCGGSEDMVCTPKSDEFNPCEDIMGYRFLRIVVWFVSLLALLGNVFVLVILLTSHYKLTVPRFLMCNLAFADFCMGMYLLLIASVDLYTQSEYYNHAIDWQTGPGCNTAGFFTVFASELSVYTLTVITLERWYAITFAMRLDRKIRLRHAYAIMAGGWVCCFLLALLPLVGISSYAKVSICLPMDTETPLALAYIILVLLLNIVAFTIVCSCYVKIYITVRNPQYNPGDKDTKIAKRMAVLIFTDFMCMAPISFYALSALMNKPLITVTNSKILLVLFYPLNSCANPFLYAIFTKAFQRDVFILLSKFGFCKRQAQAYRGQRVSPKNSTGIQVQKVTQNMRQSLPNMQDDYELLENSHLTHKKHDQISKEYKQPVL
T4 sequence (P47750 22-764, chain 1 of 3): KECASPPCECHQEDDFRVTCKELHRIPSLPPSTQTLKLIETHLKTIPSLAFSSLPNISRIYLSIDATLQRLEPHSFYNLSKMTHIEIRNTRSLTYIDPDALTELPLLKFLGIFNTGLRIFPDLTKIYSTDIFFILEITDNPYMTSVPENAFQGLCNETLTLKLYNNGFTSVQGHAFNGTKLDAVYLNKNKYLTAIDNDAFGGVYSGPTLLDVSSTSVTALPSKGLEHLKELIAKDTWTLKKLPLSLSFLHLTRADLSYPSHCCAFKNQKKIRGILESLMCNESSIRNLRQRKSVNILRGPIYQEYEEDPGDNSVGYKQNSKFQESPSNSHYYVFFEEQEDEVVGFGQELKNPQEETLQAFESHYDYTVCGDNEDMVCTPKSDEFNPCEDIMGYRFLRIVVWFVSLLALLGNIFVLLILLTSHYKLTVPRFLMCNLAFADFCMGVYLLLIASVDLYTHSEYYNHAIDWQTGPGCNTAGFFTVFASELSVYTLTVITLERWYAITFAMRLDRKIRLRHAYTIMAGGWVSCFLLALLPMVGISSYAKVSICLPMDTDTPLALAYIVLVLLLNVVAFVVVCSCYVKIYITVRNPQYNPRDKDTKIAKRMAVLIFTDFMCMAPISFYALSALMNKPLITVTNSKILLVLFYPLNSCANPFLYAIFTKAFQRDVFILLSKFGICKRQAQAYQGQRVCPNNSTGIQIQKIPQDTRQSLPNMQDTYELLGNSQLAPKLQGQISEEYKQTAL
T4 sequence (P01910 24-256, chain 2 of 3): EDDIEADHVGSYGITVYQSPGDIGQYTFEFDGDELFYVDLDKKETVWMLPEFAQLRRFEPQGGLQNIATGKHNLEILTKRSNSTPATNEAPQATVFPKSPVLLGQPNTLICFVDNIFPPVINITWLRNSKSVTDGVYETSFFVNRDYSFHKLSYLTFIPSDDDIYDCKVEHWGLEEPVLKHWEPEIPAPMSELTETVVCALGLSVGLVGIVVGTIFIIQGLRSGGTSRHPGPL
T4 sequence (P06343 28-263, chain 3 of 3): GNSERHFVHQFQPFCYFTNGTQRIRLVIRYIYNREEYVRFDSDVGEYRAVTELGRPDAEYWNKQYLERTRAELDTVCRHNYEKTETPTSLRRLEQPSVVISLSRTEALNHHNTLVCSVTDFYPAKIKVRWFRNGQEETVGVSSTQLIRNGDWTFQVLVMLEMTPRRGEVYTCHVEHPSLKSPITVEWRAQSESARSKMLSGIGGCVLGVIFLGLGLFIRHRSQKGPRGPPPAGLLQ
T5 sequence (P47750 22-764): as the sequence (P47750 22-764, chain 1 of 3) above

B1: M22 thyroid-stimulating monoclonal antibody (antibody, V domains shown)
VH: QVQLVQSGAEVKKPGESLKISCRGSGYRFTSYWINWVRQLPGKGLEWMGRIDPTDSYTNYSPSFKGHVTVSADKSINTAYLQWSSLKASDTGMYYCARLEPGYSSTWSVNWGQGTLVTVSS
VL: LTVLTQPPSVSGAPRQRVTISCSGNSSNIGNNAVNWYQQLPGKAPKLLIYYDDQLPSGVSDRFSGSRSGTSASLAIRGLQSEDEADYYCTSWDDSLDSQLFGGGTRLTVL
notes: constant region of the λ chain is not described; IgG1; also called M22 mAb; source: recombinant, V regions synthesized and cloned into pME18S expression vectors
For the molecule B1, the binding result in assay [1] is given as “binds”.

B2: K1-18 monoclonal antibody, wild type (antibody, V domains shown)
VH: EVQLVQSGAEVKKPGESLKISCKGSGYSFTNYWIGWVRQMPGKGLEWMGIIYPYDSDTRYSPSFEGQVTISADKSIRTAYLHWSSLKASDTAMYYCVRPRDGSYPYDAFDIWGQGTMVTVSS
VL: EIVLTQSPGTLSLSPGERATLSCRASQSVSNNYLAWYQQKPGQAPRLLIYGASSRATGIPDRFSGSGSGTDFTLTISRLEPEDFAVYYCQHCGSSLRAFGQGTKVEIK
notes: constant region of the λ chain is not described; IgG1; thyroid-stimulating autoantibody (TRAb) from a Graves' disease patient; also called WT K1-18; K1-18 mAb; source: recombinant, V regions synthesized and cloned into pME18S expression vectors
With B2, the binding result in assay [2], in assay [3], in assay [4] and in assay [5] was “binds” in each case.

B3: germlined K1-18 monoclonal antibody (antibody, V domains shown)
VH: EVQLVQSGAEVKKPGESLKISCKGSGYSFTSYWIGWVRQMPGKGLEWMGIIYPGDSDTRYSPSFEGQVTISADKSIRTAYLHWSSLKASDTAMYYCARPRDGSYPYDAFDIWGQGTMVTVSS
VL: EIVLTQSPGTLSLSPGERATLSCRASQSVSSSYLAWYQQKPGQAPRLLIYGASSRATGIPDRFSGSGSGTDFTLTISRLEPEDFAVYYCQHCGSSLRAFGQGTKVEIK
notes: constant region of the λ chain is not described; IgG1; also called germlined K1-18 mAb; source: recombinant, mutated from wild-type K1-18 V regions (QuikChange), pME18S expression vectors
Turning to B3, the binding result in assay [6] is recorded as “no binding”; in assay [7] it was “no binding”; in assay [3] it was “binds”.
